# According to patent publication US9963688B2, “Heavy metal resistant esterase” (AMERICAN UNIVERSITY OF CAIRO, priority 2013, dated 2018):
# Where “and” joins values, the source holds several entries; their conditions need not be identical. Equal entries are not always repeated.
# B1: EstATII: novel esterase from the lower convective layer of the Atlantis II brine pool, Red Sea; 314 amino acids, HSL family (protein)
# chain: MSRYVDELYRNPGQPGLRALLRGMLKLLFRGLIRPPVPFAVQALVLRLLTLGMPLARGVTRSTEQIAGRPCMWHRPAAGGNGRVLLYLHGGAFVIGSPQTHRGICSALASRGQFDVCALDYRLAPAHPAPAACDDAVAAYQALLQRGYAPAQITLIGDSAGGNLVLVTAQKLAALKLPLPASLVCFSPVTDMTAEQLHAPAAGDPLLHPSWLDSARDAYCPAGLDRADPMVSPLFGQLKGLPPLLLQVGEDEVLLNDSLRLAEAARAADVAVRLERYEDLWHVFQAHAGLLHSADAALQRVVDFVNSAQTDSVS
# Tests used:
# Type in all cases: biochemical
# [1] = Effect of pH on EstATII esterase activity (pNP formation measured at 348 nm)
# Description: (§1) Enzyme activity was determined by measuring the formation of p-nitrophenol (pNP) from the enzymatic hydrolysis of the p-nitrophenyl ester; p-nitrophenyl butyrate (Sigma-Aldrich). The reaction mixture contained p-nitrophenyl butyrate (pNPB) to a final concentration 0.1 mM and 50 mM Tris-HCl pH=8. In this study, the standard reaction was conducted at 65° C., initiated by the addition of EstATII and terminated by the addition of 10% SDS. Measurements were done at 410 nm using UV-spectrophotometer (Ultrospec 3100 pro, Amersham Biosciences) unless stated otherwise^20. All experiments were performed in triplicates. Substrate specificity of EstATII was determined using p-nitrophenol esters with varying side chain length. Short-chain fatty acid esters used were PNP-acetate (C2), PNP-butyrate (C4) and PNP-valerate (C5) and long-chain fatty acid esters used were PNP-decanoate (C10), PNP-dodecanoate C12, PNP-myristate (C14) and PNP-palmitate (C16). The optimum temperature for the activity of EstATII was determined at a temperature range 30-80° C. The optimum pH for the activity of EstATII was measured at a pH range (3-9.5) using the following buffers: 50 mM sodium acetate (pH 3-5.5), 50 mM sodium phosphate (pH 6, 7.5) and 50 mM Tris-HCL (pH 7.5-9.5). Formation of pNP was measured at 348 nm (the pH-independent isosbestic wavelength of pNP)^21. The effect of NaCl concentration on enzyme activity was measured at different NaCl concentrations (0-4.5 M) under standard assay conditions. To assess the effect of metal ions on enzyme activity, cations were added to a final concentration of 1 mM, and relative activity measured at the above-described standard conditions. The effect of detergents (at final concentrations 0.1 and 1%) and inhibitors (final concentration 1 mM) on enzyme activity was tested at the above-described standard assay conditions.
# [2] = Effect of detergents, reducing and modifying agents on EstATII activity; details: standard assay conditions
# Description: as §1
# [3] = Substrate specificity of EstATII
# Description: as §1
# [4] = Effect of NaCl concentration on EstATII activity; details: for Relative Activity: absence of NaCl defined as 100%
# Description: as §1
# [5] = Effect of metal ions on EstATII activity
# Description: as §1
# [6] = Effect of temperature on EstATII esterase activity (p-nitrophenyl butyrate hydrolysis)
# Description: as §1
# [7] = cation 1 mM, standard conditions
molecule,measurement,setting,value
B1,Relative Activity,"[1]; pH 3, 50 mM sodium acetate, pH 8.5 defined as 100%",0%
same,Relative Activity,"[1]; pH 4, 50 mM sodium acetate, pH 8.5 defined as 100%",0%
same,Relative Activity,"[1]; pH 5, 50 mM sodium acetate, pH 8.5 defined as 100%",0%
same,Relative Activity,"[1]; pH 5.5, 50 mM sodium acetate, pH 8.5 defined as 100%",13.1 ± 0.2%
same,Relative Activity,"[1]; pH 6, 50 mM sodium phosphate, pH 8.5 defined as 100%",38.5 ± 1.2%
same,Relative Activity,"[1]; pH 6.5, pH 8.5 defined as 100%",43.2 ± 2%
same,Relative Activity,"[1]; pH 7, pH 8.5 defined as 100%",81.5 ± 1%
same,Relative Activity,"[1]; pH 7.5 (Na Phosphate), pH 8.5 defined as 100%",88 ± 1%
same,Relative Activity,"[1]; pH 7.5 (Tris.HCl), pH 8.5 defined as 100%",66.1 ± 0.2%
same,Relative Activity,"[1]; pH 8, 50 mM Tris-HCl, pH 8.5 defined as 100%",84.7 ± 1.1%
same,Relative Activity,"[1]; pH 8.5, optimum condition (defined as 100%)",100 ± 3%
same,Relative Activity,"[1]; pH 9, 50 mM Tris-HCl, pH 8.5 defined as 100%",60 ± 2%
same,Activity of the enzyme,[1]; pH lower than 5.5,No activity
same,Activity of the enzyme,[1]; pH=7-9,> 50%
same,pH (highest activity),[1]; range tested pH 3-9,8.5
same,Relative Activity,[2]; CTAB 1 mM,13.1 ± 1.9%
same,Relative Activity,[2]; DTT 1 mM,78.9% and 78.9 ± 4.2%
same,Relative Activity,[2]; SDS 0.1%,6% and 6.1 ± 0.4%
same,Relative Activity,[2]; Triton X-100 0.1%,42.3% and 42.2 ± 1.1%
same,Relative Activity,[2]; Tween 20 0.1%,87.5% and 87.5 ± 2.3%
same,Relative Activity,[2]; Tween 20 1%,40.1% and 40.1 ± 0.9%
same,Relative Activity,[2]; Tween 80 1%,54.5% and 54.5 ± 0.7%
same,Relative Activity,[2]; β-mercaptoethanol 1 mM,117.9% and 117.9 ± 0.3%
same,Activity towards short-chain fatty acid esters,"[3]; C2, C4 and C5 p-nitrophenol esters",active
same,Activity towards long-chain fatty acid esters,"[3]; C10, C12, C14 and C16 p-nitrophenol esters",no activity
same,Relative Activity,[3]; substrate pNP-acetate (C2),100 ± 3%
same,Relative Activity,[3]; substrate pNP-butyrate (C4),61.9 ± 0.8%
same,Relative Activity,[3]; substrate pNP-decanoate (C10),0%
same,Relative Activity,[3]; substrate pNP-dodecanoate (C12),0%
same,Relative Activity,[3]; substrate pNP-myristate (C14),0%
same,Relative Activity,[3]; substrate pNP-palmitate (C16),0%
same,Relative Activity,[3]; substrate pNP-valerate (C5),40.5 ± 1.2%
same,Relative Activity,[4]; 0.5M Sodium Chloride,102.2 ± 2%
same,Relative Activity,[4]; 1M Sodium Chloride,99.9 ± 0.5%
same,Relative Activity,[4]; 1.5M Sodium Chloride,120 ± 1%
same,Relative Activity,[4]; 2M Sodium Chloride,122.9 ± 1%
same,Relative Activity,[4]; 2.5M Sodium Chloride,102.4 ± 1.8%
same,Relative Activity,[4]; 3M Sodium Chloride,73.8 ± 3.8%
same,Relative Activity,[4]; 3.5M Sodium Chloride,65.3 ± 4.6%
same,Relative Activity,[4]; 4M Sodium Chloride,53.8 ± 1%
same,Relative Activity,[4]; 4.5M Sodium Chloride,39.7 ± 1.7%
same,NaCl concentration of highest activity,[4]; range tested 0M-4.5M NaCl,2 M
same,Activity,[4]; up to 4M NaCl,> 50%
same,Enzyme activity,[4]; up to 4.5M NaCl,maintained
same,Relative activity with Ba^2+,[5]; [7],158% and 158.3 ± 2.2%
same,Relative activity with Co^2+,[5]; [7],104% and 104 ± 2%
same,Relative activity with Cu^2+,[5]; [7],94.8 ± 0.1%
same,Relative activity with Fe^3+,[5]; [7],96.2 ± 0.7%
same,Relative activity with Hg^2+,[5]; [7],60.9 ± 0.4%
same,Relative activity with Mg^2+,[5]; [7],90.6 ± 3.6%
same,Relative activity with Mn^2+,[5]; [7],111% and 111.8 ± 0.1%
same,Relative activity with Zn^2+,[5]; [7],85.2 ± 4.4%
same,Relative activity with Ca^2+,"[5]; cation 1 mM, standard conditions (65 °C, Tris-HCl pH 8, pNPB)",94.8 ± 3%
same,Activity with the rest of the metal ions tested,"[5]; metal ions other than Barium, Manganese, Cobalt, 1 mM",above 60%
same,Resistance to inhibition by all metal ions tested,[5]; significantly inhibited = relative activity below 50%,showed resistance to inhibition by all metal ions tested
same,Effect of EDTA chelation on enzyme activity,[5]; with and without EDTA chelation,not affected
same,Relative Activity,"[6]; 30 °C, pNPB 0.1 mM, 50 mM Tris-HCl pH 8, 65 °C defined as 100%",56.3 ± 0.8%
same,Relative Activity,"[6]; 35 °C, 65 °C defined as 100%",59.9 ± 1%
same,Relative Activity,"[6]; 40 °C, 65 °C defined as 100%",65.3 ± 1.8%
same,Relative Activity,"[6]; 45 °C, 65 °C defined as 100%",86.9 ± 0.9%
same,Relative Activity,"[6]; 50 °C, 65 °C defined as 100%",90.9 ± 2%
same,Relative Activity,"[6]; 55 °C, 65 °C defined as 100%",93.9 ± 1%
same,Relative Activity,"[6]; 60 °C, 65 °C defined as 100%",95.9 ± 0.3%
same,Relative Activity,"[6]; 65 °C, optimum condition (defined as 100%)",100 ± 0.2%
same,Relative Activity,"[6]; 70 °C, 65 °C defined as 100%",91.6 ± 0.15%
same,Relative Activity,"[6]; 75 °C, 65 °C defined as 100%",76.7 ± 0.3%
same,Temp ° C. (apparent optimum temperature),[6]; range tested 30-80 °C,65 °C
same,Activity of the enzyme,[6]; temperatures ranging from 45° C. to 75° C.,> 70%
